From the RNAGym collection of RNA variant scans (doi:10.1073/pnas.2313332121)

B1: TPR t1 (parent)
chain: GACCAAUCUGCCCUCAGAGCUCGAGAACAUCUUCGGAUGCAGAGGAGGCAGGCUUCGGUGGCGCGAUAGCGCCAACGUCCUCAACCUCCAAUGCAUCCCACCACAUGAUGAUGCCUGAAGAGCCUUGGUUUUUUG

Variants of: B1
Assay: polymerase ribozyme fitness, log enrichment relative to wild type (log ratio); higher = more active; in vitro selection for triplet polymerase activity
How it was run: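 Each subunit of a heterodimeric triplet polymerase ribozyme was represented by a PCR-built, transcribed mutant library that underwent triplicate single-round in vitro selection with frozen incubation at −7 °C. Extended constructs were recovered by gel excision, streptavidin-bead capture and RT-PCR, and Illumina sequencing of input and output libraries kept genotypes with ≥10 input reads and ≥1 read per output. Fitness is the logarithm of genotype enrichment relative to wild-type enrichment, from inverse-variance-weighted replicate averages, with a logarithm base of 2.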

For A6U U92A G117U, which “polymerase ribozyme fitness (log ratio)” value is on record?
The value was -5.86.

Which “polymerase ribozyme fitness (log ratio)” value does the source give for U7C G48U A50G C89U here?
Its value is -1.26.

With U7C U21G G45C G71U as the variant, how does the “polymerase ribozyme fitness (log ratio)” value read?
Its value is -2.5.

For U7A G63U G77C U92G, which “polymerase ribozyme fitness (log ratio)” value is on record?
Its value is -5.12.

Which “polymerase ribozyme fitness (log ratio)” value does the source give for A6U U112G U130A here?
Its value is 0.321.

With U7C U106C as the variant, how does the “polymerase ribozyme fitness (log ratio)” value read?
Its value is -0.478.

Which “polymerase ribozyme fitness (log ratio)” value does the source give for U7C U78G C82G C99A U112G G128U here?
Its value is -5.9.

Which “polymerase ribozyme fitness (log ratio)” value does the source give for C8A G58C U59C A105C U132A here?
Its value is -2.68.

Which “polymerase ribozyme fitness (log ratio)” value does the source give for U7G G17A G39A U55A C82G C115A U130C here?
The value was -2.79.

With U7A C53U C86U A90G G122A as the variant, how does the “polymerase ribozyme fitness (log ratio)” value read?
Its value is -1.97.

Which “polymerase ribozyme fitness (log ratio)” value does the source give for C8A G69U C88G G128C here?
The value was -3.18.

For C8A C89U, which “polymerase ribozyme fitness (log ratio)” value is on record?
Its value is 0.136.

For U7G C40U C72A C86U G93U C102A U106A, which “polymerase ribozyme fitness (log ratio)” value is on record?
Its value is -5.6.

Which “polymerase ribozyme fitness (log ratio)” value does the source give for U7A C12U A46U G58A C70A here?
Its value is -1.97.

With C8A C13U U38A C97A as the variant, how does the “polymerase ribozyme fitness (log ratio)” value read?
Its value is -6.04.

Which “polymerase ribozyme fitness (log ratio)” value does the source give for C8A U21C G58C C82A U106G U132A here?
Its value is -1.35.

For U7A C12G A18C G45A G48A C49A A74G C85U, which “polymerase ribozyme fitness (log ratio)” value is on record?
Its value is -5.35.

Which “polymerase ribozyme fitness (log ratio)” value does the source give for U7A A24C C40G G93U U112A C123U here?
The value was -5.82.

Which “polymerase ribozyme fitness (log ratio)” value does the source give for U7G G17U G61U here?
Its value is -0.326.

For U7A C72A G93C, which “polymerase ribozyme fitness (log ratio)” value is on record?
Its value is -0.463.

Which “polymerase ribozyme fitness (log ratio)” value does the source give for A6U U106A U116A here?
The value was -2.08.

With U7A C12G G17U A105G G120C as the variant, how does the “polymerase ribozyme fitness (log ratio)” value read?
The value was -4.05.

With C8A A37U C104A as the variant, how does the “polymerase ribozyme fitness (log ratio)” value read?
The value was -1.64.

With U7A C15A A41C C70U as the variant, how does the “polymerase ribozyme fitness (log ratio)” value read?
Its value is -2.92.

For A6U C79G, which “polymerase ribozyme fitness (log ratio)” value is on record?
The value was -1.17.

Which “polymerase ribozyme fitness (log ratio)” value does the source give for U7C G42U G47A here?
The value was -1.32.

For C8A U14G U55A C62U U78A A100C, which “polymerase ribozyme fitness (log ratio)” value is on record?
The value was -1.37.

Which “polymerase ribozyme fitness (log ratio)” value does the source give for U7G A37C A95C here?
Its value is 0.483.

Which “polymerase ribozyme fitness (log ratio)” value does the source give for C8A G65C C115A C123G here?
Its value is -4.88.

With C8A A37G A100C as the variant, how does the “polymerase ribozyme fitness (log ratio)” value read?
The value was -0.161.

Which “polymerase ribozyme fitness (log ratio)” value does the source give for U7G G45C G52C C79U C102A here?
The value was -3.37.

With U7A C40U as the variant, how does the “polymerase ribozyme fitness (log ratio)” value read?
The value was 0.348.

For U7A C40G, which “polymerase ribozyme fitness (log ratio)” value is on record?
Its value is -0.25.

Which “polymerase ribozyme fitness (log ratio)” value does the source give for U7A C73A C82G here?
Its value is -0.0183.

With U7G G61A C76A C94A G110C G117C as the variant, how does the “polymerase ribozyme fitness (log ratio)” value read?
The value was -7.29.

For U7C G19U U54C C72G, which “polymerase ribozyme fitness (log ratio)” value is on record?
Its value is -3.1.

Which “polymerase ribozyme fitness (log ratio)” value does the source give for U7A C72U U92C here?
The value was -0.872.

For U7A U14A A119G, which “polymerase ribozyme fitness (log ratio)” value is on record?
Its value is 0.0679.

For U7A C22U G39A G44U C53U C56G G63A A68U C124A U125A, which “polymerase ribozyme fitness (log ratio)” value is on record?
Its value is -6.98.

With C8A C82G as the variant, how does the “polymerase ribozyme fitness (log ratio)” value read?
The value was -0.777.

With U7C C13A G93A C102A A103U A121C as the variant, how does the “polymerase ribozyme fitness (log ratio)” value read?
Its value is -4.79.

For U7A C70A G113C, which “polymerase ribozyme fitness (log ratio)” value is on record?
The value was -4.53.

Which “polymerase ribozyme fitness (log ratio)” value does the source give for A6U U54A C62U here?
Its value is 0.317.

For U7A C8G A16C A46U C70A, which “polymerase ribozyme fitness (log ratio)” value is on record?
Its value is -3.78.

For U7C C73A, which “polymerase ribozyme fitness (log ratio)” value is on record?
The value was -0.286.

Which “polymerase ribozyme fitness (log ratio)” value does the source give for U7C C12A C76G here?
The value was 0.0602.

For C8A C64U U78A C94G A100U C102A U112A G128A U129A G135C, which “polymerase ribozyme fitness (log ratio)” value is on record?
The value was -4.75.

For U7A C11A A26U G63A U112A G127U, which “polymerase ribozyme fitness (log ratio)” value is on record?
The value was -3.63.

Which “polymerase ribozyme fitness (log ratio)” value does the source give for U7G C64U C97U G107A U112A here?
The value was -5.51.

With U7A G48C A74U G113A U130C U133G as the variant, how does the “polymerase ribozyme fitness (log ratio)” value read?
Its value is -1.3.

For C8A A43C G44A C53A C86U G93U, which “polymerase ribozyme fitness (log ratio)” value is on record?
Its value is -2.53.

With U7G C12A C97U G117C as the variant, how does the “polymerase ribozyme fitness (log ratio)” value read?
The value was -3.54.

For U7G G23C C82U C86G G110C, which “polymerase ribozyme fitness (log ratio)” value is on record?
The value was -7.53.

Which “polymerase ribozyme fitness (log ratio)” value does the source give for A6U C115G here?
Its value is -1.25.

With U7A C85U U125G as the variant, how does the “polymerase ribozyme fitness (log ratio)” value read?
The value was -1.31.

With A6U G60A C97G A111G U125A G135A as the variant, how does the “polymerase ribozyme fitness (log ratio)” value read?
Its value is -6.23.

For C8A G48U U59G C73G A105C U112C G120A, which “polymerase ribozyme fitness (log ratio)” value is on record?
The value was -2.35.

Which “polymerase ribozyme fitness (log ratio)” value does the source give for C8A C56G here?
Its value is 0.28.

With U7C C8A G48U G63U G120U C123U as the variant, how does the “polymerase ribozyme fitness (log ratio)” value read?
Its value is -0.338.

For U7A C56A A121G, which “polymerase ribozyme fitness (log ratio)” value is on record?
Its value is 1.68.

For U7G A24U C102G U109A, which “polymerase ribozyme fitness (log ratio)” value is on record?
The value was -4.85.

For C8A G61A, which “polymerase ribozyme fitness (log ratio)” value is on record?
The value was -0.475.

Which “polymerase ribozyme fitness (log ratio)” value does the source give for C8A G39U C64U A111U U116G U129G here?
The value was -5.99.

For A6U G71C G120C C123G, which “polymerase ribozyme fitness (log ratio)” value is on record?
The value was -0.502.

For U7A A41U C85U, which “polymerase ribozyme fitness (log ratio)” value is on record?
The value was -1.81.

With U7A C40A G71U C89G A103C C124U as the variant, how does the “polymerase ribozyme fitness (log ratio)” value read?
The value was -6.17.

Which “polymerase ribozyme fitness (log ratio)” value does the source give for C8A C80U A105C U112G G120C here?
The value was -3.09.

For U7A G44C C124G U129G G135U, which “polymerase ribozyme fitness (log ratio)” value is on record?
The value was -0.681.

For U7G C79U C80U, which “polymerase ribozyme fitness (log ratio)” value is on record?
The value was -1.81.

Which “polymerase ribozyme fitness (log ratio)” value does the source give for U7A U33A C70U here?
Its value is -5.78.

With C8A C13U G36C as the variant, how does the “polymerase ribozyme fitness (log ratio)” value read?
The value was -0.24.

For U7G C94G, which “polymerase ribozyme fitness (log ratio)” value is on record?
Its value is -0.426.

For A6U G19A G44A C53A G57A A100U C124U, which “polymerase ribozyme fitness (log ratio)” value is on record?
The value was -4.72.

With U7G C13G as the variant, how does the “polymerase ribozyme fitness (log ratio)” value read?
The value was 0.14.

For U7C C31U G61C G71U C72G G120U, which “polymerase ribozyme fitness (log ratio)” value is on record?
The value was -5.19.

With U7G A83U as the variant, how does the “polymerase ribozyme fitness (log ratio)” value read?
The value was -0.221.

With A6U G44U G52C G69A A121C as the variant, how does the “polymerase ribozyme fitness (log ratio)” value read?
The value was -4.22.

With C8A A29U G69U as the variant, how does the “polymerase ribozyme fitness (log ratio)” value read?
The value was -0.0842.

For U7A U106A C124A, which “polymerase ribozyme fitness (log ratio)” value is on record?
Its value is 1.98.

With C8A G135A as the variant, how does the “polymerase ribozyme fitness (log ratio)” value read?
Its value is -0.0375.

Which “polymerase ribozyme fitness (log ratio)” value does the source give for U7C C12A C88A U96A C104U here?
Its value is -1.43.

With U7A G60C C72U as the variant, how does the “polymerase ribozyme fitness (log ratio)” value read?
Its value is 0.796.

For C8A C70G, which “polymerase ribozyme fitness (log ratio)” value is on record?
The value was -1.76.

For U7G C70G C102U U106A, which “polymerase ribozyme fitness (log ratio)” value is on record?
The value was -4.46.
